Measurements taken from patent US20250282866A1 (VIGIL NEUROSCIENCE, published 2025).

T1: human TREM2 (human, UniProt Q9NZC2 19-174, limits assumed)
T1 construct: also called triggering receptor expressed on myeloid cells 2
T1 sequence: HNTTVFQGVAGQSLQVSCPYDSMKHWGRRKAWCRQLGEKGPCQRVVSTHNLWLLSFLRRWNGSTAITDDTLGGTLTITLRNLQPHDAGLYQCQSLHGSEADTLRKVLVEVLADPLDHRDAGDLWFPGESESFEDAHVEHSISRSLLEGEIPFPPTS


Columns and labels:
[1] = target: T1, human TREM2; assay: 1st screen (110 nM or 10 nM)
[2] = target: T1, human TREM2; assay: 2nd screen, printed under 10 nM
[3] = target: T1, human TREM2; assay: 2nd screen 2 nM
[4] = target: T1, human TREM2; assay: 2nd screen 10 nM

Binding Signal (fold over 6E7 Parental antibody) [1] | Binding Signal (fold over 6E7 Parental antibody) [2] | Binding Signal (fold over 6E7 Parental antibody) [3] | Binding Signal (fold over 6E7 Parental antibody) [4] | Binder
0.61 fold | 0.73 fold |  |  | V31 (antibody, V domains shown) VH: EVQLVQSGAEVKKPGESLKISCKGSGYSFTSYWIAWVRQMPGKGLEWMGIIYPGDSETRYSPSFQGQVTISADKSISTAYLQWSSLKASDTAMYFCARQRTFYYDSSDYFDYWGQGTLVTVSS VL: DIQMTQSPSSVSASVGDRVTITCRASQGISSWLAWYQQKPGKAPKLLIYAASSLQNGVPSRFSGSGSGTDFTLTISSLQPEDFATYFCQQADSFPRTFGQGTKLEIK
1.33 fold |  | 0.94 fold | 1.46 fold | V89 (antibody, V domains shown) VH: EVQLVQSGAEVKKPGESLKISCKGSGYSFTSYWIAWVRQMPGKGLEWMGIIYPGDSDTRYSPSFQGQVTISADKSISTAYLQWSSLKASDTAMYFCARQRTFYYDSSDYFDYWGQGTLVTVSS VL: DIQMTQSPSSVSASVGDRVTITCRASQGISSWLAWYQQKPGKAPKLLIYAASSLQNGVPSRFSGSGSGTDFTLTISSLQPEDFATYFCQQADSHPRTFGQGTKLEIK
1.43 fold |  | 0.83 fold | 1.38 fold | V77 (antibody, V domains shown) VH: EVQLVQSGAEVKKPGESLKISCKGSGYSFTSYWIAWVRQMPGKGLEWMGIIYPGDSDTRYSPSFQGQVTISADKSISTAYLQWSSLKASDTAMYFCARQRTFYYDSSDYFDYWGQGTLVTVSS VL: DIQMTQSPSSVSASVGDRVTITCRASQGISSWLAWYQQKPGKAPKLLIYAASSRQNGVPSRFSGSGSGTDFTLTISSLQPEDFATYFCQQADSFPRTFGQGTKLEIK
4.57 fold |  | 4.34 fold | 4.93 fold | V76 (antibody, V domains shown) VH: EVQLVQSGAEVKKPGESLKISCKGSGYSFGSYWIAWVRQMPGKGLEWMGIIYPGDSDTRYSPEFQGQVTISADKSISTAYLQWSSLKASDTAMYFCARQRTFYYDSSDYSDYWGQGTLVTVSS VL: DIQMTQSPSSVSASVGDRVTITCRASQGISSWLAWYQQKPGKAPKLLIYAASSLQKGVPSRFSGSGSGRDFTLTISSLQPEDFATYFCQQADSFPRTFGQGTKLEIK
4.92 fold |  | 5.57 fold | 5.3 fold | V88 (antibody, V domains shown) VH: EVQLVQSGAEVKKPGESLKISCKGSGYSFGSYWIAWVRQMPGKGLEWMGIIYPGDSDTRYSPSFQGQVTISADKSISTAYLQWSSLKASDTAMYFCARQRTFYYDSSDYFDYWGQGTLVTVSS VL: DIQMTQSPSSVSASVGDRVTITCRASQGISSWLAWYQQKPGKAPKLLIYAASRLQRGVPSRFSGSGSGTDFTLTISSLQPEDFATYFCQQADSSPRTFGQGTKLEIK
5.41 fold |  | 5.41 fold | 5.37 fold | V85 (antibody, V domains shown) VH: EVQLVQSGAEVKKPGESLKISCKGSGYSFRSYWIAWVRQMPGKGLEWMGTIYPGDSDTRYSPSFQGQVTISADKSISTAYLQWSSLKASDTAMYFCARSRTFYYDSSDYFDYWGQGTLVTVSS VL: DIQMTQSPSSVSASVGDRVTITCRASQGISSWLAWYQQKPGKAPKLLIYAASSRQNGVPSRFSGSGSGTDFTLTISSLQPEDFATYFCQQADSFPRTFGQGTKLEIK
3.84 fold |  | 4.86 fold | 3.93 fold | V87 (antibody, V domains shown) VH: EVQLVQSGAEVKKPGESLKISCKGSGYSFRSYWIAWVRQMPGKGLEWMGIIYPGDSDVRYSPDFQGQVTISADKSISTAYLQWSSLKASDTAMYFCARSRTFYYDSSDYFDYWGQGTLVTVSS VL: DIQMTQSPSSVSASVGDRVTITCRASQGISSWLAWYQQKPGKAPKLLIYAASSLQWGVPSRFSGSGSGTDFTLTISSLQPEDFATYFCQQADSFPRTFGQGTKLEIK
4.64 fold |  | 3.74 fold | 4.52 fold | V75 (antibody, V domains shown) VH: EVQLVQSGAEVKKPGESLKISCKGSGYSFTSYWIAWVRQMPGKGLEWMGIIYPGDSDTRYSPSFQGQVTISADKSISTAYLQWSSLKASDTAMYFCARGRTFYYDSSDYFDYWGQGTLVTVSS VL: DIQMTQSPSSVSASVGDRVTITCRASQGISSWLAWYQQKPGKAPKLLIYAASSLQAGVPSRFSGSGSGTDFTLTISSLQPEDFATYFCQQADSYPRTFGQGTKLEIK
1.44 fold |  | 1.45 fold | 1.62 fold | V84 (antibody, V domains shown) VH: EVQLVQSGAEVKKPGESLKISCKGSGYGFTSYWIAWVRQMPGKGLEWMGIIYPGDSDTRYSPSFQGQVTISADKSISTAYLQWSSLKASDTAMYFCARQRTFYYDSSDYSDYWGQGTLVTVSS VL: DIQMTQSPSSVSASVGDRVTITCRASQGISSWLAWYQQKPGKAPKLLIYGASSLQNGVPSRFSGSGSGTDFTLTISSLQPEDFATYFCQQADSFPRTFGQGTKLEIK
4.8 fold |  | 5.17 fold | 5.02 fold | V86 (antibody, V domains shown) VH: EVQLVQSGAEVKKPGESLKISCKGSGYSFGSYWLAWVRQMPGKGLEWMGIIYPGDSDTRYSPSFEGQVTISADKSISTAYLQWSSLKASDTAMYFCARSRTFYYDSSDYFDYWGQGTLVTVSS VL: DIQMTQSPSSVSASVGDRVTITCRASQGISSWLAWYQQKPGKAPKLLIYAASSRQNGVPSRFSGSGSGTDFTLTISSLQPEDFATYFCQQADSFPRTFGQGTKLEIK
